Reference: a protein production outcome set (Wang et al. 2014)

Test: label from the status in PepcDB records

Sequence | protein production
MPPVWTLPRLYQHFQGAIDLELWTIPYYLTVLYSIKDPTTVPYRLIQAAVYQEMLHAQLVSNIANAYGYSPTLSAPEYVGTAVPHIDFDLDTPNPTSIFTPYSAELGPLDLTRVNTMCLIEYPEWRTQREPDLADDVTDYGSIGEFYDALRVGMEQLRGHVRGNQKQMDEFGPFYQNSPPLTVTESGDAGFLQALTLVDIIVDQGEGQTQPVETIPTEFQNTADGFQDAWPHFQRFDFIRRMPNWPGVYTGVTDPPAGSPGAEAQARLIADFAGFLDILNGMFSGGGAPPAFGVQMAKLGGDILSCWKLGAVPRYS | not failed
MPQDTTNPSTGTAEQRTATDTTVQLRAGWQGRFYEDFAVGDVYKHPYGRTVTETDNVWFTNLTMNANPMHFNAAYASGTEFDERLVNGLFVIALSVGMSVVDVSANATANLGYDDIQHHAPVFHGDTLFAESEVLSKRESESRPHVGMVTTELRTYTQDGELVLSLERTPMVRKRGAADPSAARPPGWPAGVGTQPDAERTVPDGESR | failed
MPQITLVFISLSGNTLSFVKRLSLYLADNYDYHVKQINIKDLKHETFPVKEEFVAILPTYLEGGNGVDSGDVEILTTPLGEFIAAHGNAQRCLGIIGSGNKNFNHQYCLTAKQYAKRFGFPLLGDFELRGTPDDISRLAQVIMEASSRHSSNDTQTL | failed
MPQKTKDTPMMRQYFAVKNQYPDAFLFYRLGDFYEMFFDDAIKGAQLLELTLTTRNHSAENPIPMCGVPHRAVQNYIDILVDKGYKVAICEQMEDPKLAKGMVKREVIQLVTPGTTLERGAEQAKTNNYLTALIQRDQQYGFAYADLSTGELKTSVLTTNDTLINELTSLQTKEIVVDDSVASDLRDQIKTLGILISEQNNVTPQAQLSYLTQDLTVDLEQQVVERLLMYITVTQKRSLAHLQKAIAYEPSYFLKLDHNSKYNLELMKSIRTGKKQGTLLWLLDETKTAMGGRLLKQWIDRPLIVKADIETRQNKVATLLDHYFERSNLQEELTKVYDLERLAGRVAFGSVNGRDLVQLKTSLRQIPKIRYILSELDTQVFNDEVNQLDPVEDVADLIDAAIVEDAPLSVTDGGVIKDGYNEQLDQYRDAMNNGKKWIAELEAQERATTGIKNLKIGFNRVFGYYIEVTKANLAQLPKDRYERKQTLTNAERFSTPELKSHESLILEAESHSTDLEYQLFTKVRETVKKAIQRLQTLAKAVAAIDVLQSFAVVSEDYHFVRPKLTKSHDLKIVDGRHPVVEKVMGNQSYVPNNVTMSPDETVLLITGPNMSGKSTYMRQLALTVIMAQIGCFVPAKSAQLPIFDQIFTRIGATDDLISGQSTFMVEMQEANNALQHATANSLVLFDEIGRGTATYDGMALAQAIIEFVHNHIHAKTLFSTHYHELTALDQELSGLRNVHVGATEQDGELVFLHKVEPGAADKSYGVHVAKLAGMPTSLLERANKILTSLENQTSTVSTTAASIAASDAANSVAPNTAASMPVEAADESQPVESETPVAEAPVAEAGDEQLSLFAEPAVTDAKGEKVLQQLKTLNLMAMTPMDVMNQLYKWQQKLGK | failed
MPQNQLVITIIDESGSKQLKFSKNLKRNLIISVVIFLLIVGLGVGFLKFLIAKMDTMTAERNAVLRDFRDLYQKNYTLTKEIKNKREELFIVGQKIRTIESLIEVKRGANGGVHLYDEVDLDNLNLAQKHLALMLIPNGMPIKTYSAIKPTKERNHPIKKIKGVESGIDFIAPLNTPVYASADGIVDFVKTNSNVGYGNLVRIEHAFGFSSIYTHLDHVNVQPKSFIQKGQLIGYSGKSGNSGGEKLHYEVRFLGKILDAQKFLAWDLDHFQSALEENKFIEWKNLFWVLEDIVQLQEHVDKDALISQ | failed
MPQVDPELFDRGQFQAELALKSSPIAAFKKAIRQFREVLDNRFNSGRDIRRLIEDRAWCVDQILQQAWQRFDWGDDADIALVAVGGYGRGELHPYSDVDLLILLDSEDQESFREPIEGFLTLLWDIGLEVGQSVRSVQQCAEEARADLTVITTLMECRTICGPDSLRQRMLQVTGSAHMWPSKEFFLAKRHEQQRRHAKYNDTEYNLEPNVKGSPGGLRDIQTILWMARRQFGSLNLHALVREGFLVESECSMLASSQEFLWRVRYALHMLAGRAEDRLLFDHQRSIARLFGYEDNDVKLAVERFMQKYYRVVMAISELNDLIIQHFEEVILPCEQPVQIQPLNSRFQLRDGYIEVTHPNVFKRTPFALLEIFVLMAQHPEIKGVRADTIRLLRDSRHLIDDEFRHDIRNTSLFIELFKSSQGIHRNLRRMNRYGILGRYLPEFGHIIGQMQHDLFHIYTVDAHTLNLIKHLRKLNRPEMAEKYPLASKIIDRLPKPELIYIAGLYHDIAKGRGGDHSELGAVDAEAFCQSHQLPLWDTQLVSWLVQNHLVMSTTAQRKDLSDPQVIFDFAQLVGDQTHLDYLYVLTVADINATNPTLWNSWRASLLRQLYTETKRALRRGLENPVDREEQIRQTQTAALDQLVRNGIDQDDAEQLWSQLGDDYFLRHTAGDVAWHTEAILQHPDDGTPLVLIKETTQREFESGSQIFIYAADQHDFFAVTVAAMDQLNLSIQDARIITSTSQFTLDTYIVLDADGDSIGNNPERIAEIREGLIDALKNPDDYPTIIQRRVPRQLKHFAFAPQVTISTDALRQVSVLEVIAPDRPGLLARIGGIFLDFDLSVQNAKIATLGERVEDVFYITDARNQPLADPDLCKRLQAALVEQLSQDNGRDT | failed
MPRFRSVFLALLVVPLVDAVFLVFVAGELGWQLTVALVVLTALLGTLFVRAEGRATLSRLQASVARGDPPTNELVDGGLLIAAGAFLLTPGLVTDALGFLIVIPVTRVAFRWGVKRYVTPKLDAKTGGFVSGNVYTFGFPGGDGGAGGDPRSGFGGGAGDGDDDTINLGDDAYDVSFEDDADGDQ | failed
MPRKNQDLYHHYPQKDRKFTMYKLSEKGEQIREMFSDIAPRYDFLNRLLSFGIDRRWRRIAVQCARWSEGGKILDVATGTGDVALEIARQTPDSVSIIGIDITEGMVVLGREKVAQSPYARRITLEIAPCEAIPFPDNTFDSVTIAFGIRNVVDRRQGLAEMQRILKPGGRAVILEFSTPRSQFFKRVYYFYFLRLLPAIGGLFSNFSAYKYLPDSVLEFPSQEEFKTLMRSVGFHSTTHRDLTFGIATIYTGEKAAQN | failed
MPRRSALLGQPLFRLLAINLAIGVTIAALLLGGLLYLNPGHLRDLIFADDSPGTALGLLLFGFVVTFGSAAMGSAIMAMGSDLRGGGKGGRKLALPIEMIPGAKAIPVRAEHGARAVRRHGSL | failed
MPRYKTVEQVLSLMKDRTRVRNIGIIAHVDHGKTTTSDTLLAASGIISPKVAGEALALDYLNVEQQRGITVKAANISLYHEAEGKGYVINLIDTPGHVDFSGRVTRSLRVLDGSIVVVDAVEGIMTQTETVLRQSLEERVRPILFINKVDRLVKELKLSPQEMLNRLLDIIRQVNNLIDMYGEPEFKEKWMINPQAGNVIFGSAKDKWGFSLPMAQKKGINMKNVIDAYTASDKSKLEELAAQAPINEALLDAAIKFVPNPIEAQKYRIPKIWKGDLDNELAKAMLNADPNGPIVFMITDMKVDPHAGLVATGRVFSGTLRSGEELWLVNAKTSQRILQVSLYMGPTRELAEEIPAGNIAAVLGLDRARSGETAISVGFSNVQGSFERLHYISEPVVTIAVEPKNPKDLTKMIDALRKLSIEDPNLVVKINEETGEYLLSGMGFLHLEVSLQLLRENYGIDVVTTPPIVVYRESIRAKSQVFEGKSPNKHNKFYLSVEPLNDKTIELISNGTIREDMDSKEMAKILRDEASWDYDEAKRIIAIDENVNVFVDLTSGVQHLREVMDTVLQGFRLAMKEGPLAHEPIRGVKVILHDAVIHEDPAHRGPAQIYPAVRNSIFAGFLTSRPTLLEPIQKLDIRVPADLIGNVTAVITRKRGKILDVSQIANMSRITAEIPVSESYDMASELRGSTGGRAFWGTEFSRWAPVPDSILLDVVTKIRERKGLPKELPKVEDFLS | failed
